The target in test [1] is SARS-CoV-2 spike protein receptor binding domain, wild-type (SARS-CoV-2) (UniProt P0DTC2). The test can be described thus: ITC. In general terms: In ITC the heat of successive injections is recorded.
For test [2] the target is unchanged. The test can be described thus: ITC. The source holds these as a separate data set.

For orientation: pKd means −log10 of the Kd, conventionally taken in molar units. A low value points to a large Kd.

pKd: −log10 of the molar value. Where two headings read alike, the source gives them in different places.

Take “P2B-2F6 single chain variable fragment (scFv)”: in test [1], the pKd was 7.09.

Turning to “CC12.1 single chain variable fragment (scFv)”, the pKd in test [1] was 7.62; in test [2], 7.55.
